Laboratory results from PMC4432389, “Cytosolic Hsp70 and co-chaperones constitute a novel system for tRNA import into the nucleus” (eLife, 2015).

Key:
[1] = biological target: T1, Ssa1p (S. cerevisiae, UniProt P10591 1-642); experiment: pull-down; 200 pmol GST or GST-nucleoporin fusion and 40 pmol Ssa1p or Ssa2p incubated with Glutathione Sepharose in Buffer 88 (20 mM HEPES-KOH pH 6.8, 2 mM Mg(OAc)2, 150 mM KOAc) with 0.10% wt/vol Tween-20, 4°C, 2 hr; eluted with 10 mM reduced glutathione; Ssa proteins detected by Western blotting with anti-Ssa protein antibodies; conditions: both partners purified
T1 construct: Ssa1p, cytosolic Hsp70 of S. cerevisiae, full length (residues 1-642 by the domain constructs); Expressed from a pCold2 vector with a C-terminal His6 tag; also called Ssa1p-His6; Ssa proteins; source: E. coli BL21(DE3) co-expressing trigger factor, purified (Ni-NTA agarose)

[2] = biological target: T2, Ssa2p (S. cerevisiae, UniProt P10592 1-639); experiment: as above; conditions: both partners purified
T2 construct: Ssa2p, major cytosolic Hsp70 of S. cerevisiae, full length (residues 1-639 by the domain constructs); Expressed from a pCold2 vector with a C-terminal His6 tag; also called Ssa2p-His6; Ssa proteins; source: E. coli BL21(DE3) co-expressing trigger factor, purified (Ni-NTA agarose)
T2 sequence (P10592 whole entry, the tested form may be a part): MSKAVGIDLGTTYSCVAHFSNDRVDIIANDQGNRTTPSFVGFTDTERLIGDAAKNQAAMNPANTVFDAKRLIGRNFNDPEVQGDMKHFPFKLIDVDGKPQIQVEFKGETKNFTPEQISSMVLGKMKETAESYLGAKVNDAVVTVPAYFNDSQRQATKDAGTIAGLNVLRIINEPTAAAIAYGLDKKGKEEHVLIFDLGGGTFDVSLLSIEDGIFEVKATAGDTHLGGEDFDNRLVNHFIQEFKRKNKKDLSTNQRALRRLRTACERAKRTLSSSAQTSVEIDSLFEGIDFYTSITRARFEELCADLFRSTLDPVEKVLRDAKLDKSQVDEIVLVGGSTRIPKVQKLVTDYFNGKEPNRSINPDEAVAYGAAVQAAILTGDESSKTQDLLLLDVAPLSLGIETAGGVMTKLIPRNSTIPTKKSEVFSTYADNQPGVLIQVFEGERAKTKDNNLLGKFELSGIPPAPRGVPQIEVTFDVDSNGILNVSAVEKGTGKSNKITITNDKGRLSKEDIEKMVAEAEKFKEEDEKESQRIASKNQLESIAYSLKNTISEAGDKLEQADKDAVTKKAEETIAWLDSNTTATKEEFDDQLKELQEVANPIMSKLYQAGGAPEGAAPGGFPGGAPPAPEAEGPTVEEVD

T1 sequence (P10591 whole entry, the tested form may be a part): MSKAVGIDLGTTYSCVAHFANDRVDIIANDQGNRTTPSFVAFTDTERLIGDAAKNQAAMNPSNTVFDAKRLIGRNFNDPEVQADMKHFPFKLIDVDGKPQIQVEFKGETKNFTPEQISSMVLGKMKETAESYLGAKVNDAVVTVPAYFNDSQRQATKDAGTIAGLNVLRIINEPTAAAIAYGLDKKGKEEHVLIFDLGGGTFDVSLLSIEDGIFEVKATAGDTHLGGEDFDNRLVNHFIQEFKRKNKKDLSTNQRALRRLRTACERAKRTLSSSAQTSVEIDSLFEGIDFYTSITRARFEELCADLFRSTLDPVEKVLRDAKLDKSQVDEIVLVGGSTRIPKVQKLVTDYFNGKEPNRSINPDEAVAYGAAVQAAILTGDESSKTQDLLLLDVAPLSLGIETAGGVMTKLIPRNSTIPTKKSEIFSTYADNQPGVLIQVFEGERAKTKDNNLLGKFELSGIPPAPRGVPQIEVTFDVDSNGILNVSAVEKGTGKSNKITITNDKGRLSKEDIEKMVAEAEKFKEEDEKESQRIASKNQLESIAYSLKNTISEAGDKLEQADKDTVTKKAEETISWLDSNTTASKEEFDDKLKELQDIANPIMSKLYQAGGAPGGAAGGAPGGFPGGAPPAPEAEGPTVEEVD

binding result [1]: binds
binding result [2]: binds
B1: GST-Nup116(165–715)p (domain or fragment, S. cerevisiae, UniProt Q02630 165-715, looked up)
chain: RKFGTSQNGTGTTFNNPQGTTNTGFGIMGNNNSTTSATTGGLFGQKPATGMFGTGTGSGGGFGSGATNSTGLFGSSTNLSGNSAFGANKPATSGGLFGNTTNNPTNGTNNTGLFGQQNSNTNGGLFGQQQNSFGANNVSNGGAFGQVNRGAFPQQQTQQGSGGIFGQSNANANGGAFGQQQGTGALFGAKPASGGLFGQSAGSKAFGMNTNPTGTTGGLFGQTNQQQSGGGLFGQQQNSNAGGLFGQNNQSQNQSGLFGQQNSSNAFGQPQQQGGLFGSKPAGGLFGQQQGASTFASGNAQNNSIFGQNNQQQQSTGGLFGQQNNQSQSQPGGLFGQTNQNNNQPFGQNGLQQPQQNNSLFGAKPTGFGNTSLFSNSTTNQSNGISGNNLQQQSGGLFQNKQQPASGGLFGSKPSNTVGGGLFGNNQVANQNNPASTSGGLFGSKPATGSLFGGTNSTAPNASSGGIFGSNNASNTAATTNSTGLFGNKPVGAGASTSAGGLFGNNNNSSLNNSNGSTGLFGSNNTSQSTNAGGLFQNNTSTNTSGGGLFS
notes: Cloned into pGEX-4T-2; also called Nup116p; source: DH5α, purified (Glutathione Sepharose, NAP-10 desalting)
